Assay results taken from patent publication US7597894B2, “Compositions and methods employing alternative reading frame polypeptides for the treatment of cancer and infectious disease” (Dendreon Corporation, priority 2003, dated 2009).

B1: HER500rGM-CSF: recombinant fusion protein of hHER-2 extracellular and intracellular domain sequences, OVA octapeptide and rat GM-CSF; positive control (protein, listed as Homo sapiens)
chain: MRAAPLLLARAASLSLGFLFLLFFWLDRSVLAKELARGAASTQVCTGTDMKLRLPASPETHLDMLRHLYQGCQVVQGNLELTYLPTNASLSFLQDIQEVQGYVLIAHNQVRQVPLQRLRIVRGTQLFEDNYALAVLDNGDPLNNTTPVTGASPGGLRELQLRSLTEILKGGVLIQRNPQLCYQDTILWKDIFHKNNQLALTLIDTNRSRACHPCSPMCKGSRCWGESSEDCQSLTRTVCAGGCARCKGPLPTDCCHEQCAAGCTGPKHSDCLACLHFNHSGICELHCPALVTYNTDTFESMPNPEGRYTFGASCVTACPYNYLSTDVGSASIINFEKLGAGGMVHHRHRSSSTRSGGGDLTLGLEPSEEEAPRSPLAPSEGAGSDVFDGDLGMGAAKGLQSLPTHDPSPLQRYSEDPTVPLPSETDGYVAPLTCSPQPEYVNQPDVRPQPPSPREGPLPAARPAGATLERAKTLSPGKNGVVKDVFAFGGAVENPEYLTPQGGAAPQPHPPPAFSPAFDNLYYWDQDPPERGAPPSTFKGTPTAENPEYLGLDVPAAAPTRSPNPVTRPWKHVDAIKEALSLLNDMRALENEKNEDVDIISNEFSIQRPTCVQTRLKLYKQGLRGNLTKLNGALTMIASHYQTNCPPTPETDCEIEVTTFEDFIKNLKGFLFDIPFDCWKPVQKGAPPPPAHHHHHH
B2: HER300: recombinant fusion protein with 289 amino acids of HER-2 membrane distal extracellular domain and OVA257-264; negative control (protein, listed as Homo sapiens)
chain: MRAAPLLLARAASLSLGFLFLLFFWLDRSVLAKELARGAASTQVCTGTDMKLRLPASPETHLDMLRHLYQGCQVVQGNLELTYLPTNASLSFLQDIQEVQGYVLIAHNQVRQVPLQRLRIVRGTQLFEDNYALAVLDNGDPLNNTTPVTGASPGGLRELQLRSLTEILKGGVLIQRNPQLCYQDTILWKDIFHKNNQLALTLIDTNRSRACHPCSPMCKGSRCWGESSEDCQSLTRTVCAGGCARCKGPLPTDCCHEQCAAGCTGPKHSDCLACLHFNHSGICELHCPALVTYNTDTFESMPNPEGRYTFGASCVTACPYNYLSTDVGSASIINFEKLAAPTRSPNPVTRPWKHVDAIKEALSLLNDMRALENEKNEDVDIISNEFSIQRPTCVQTRLKLYKQGLRGNLTKLNGALTMIASHYQTNCPPTPETDCEIEVTTFEDFIKNLKGFLFDIPFDCWKPVQKGAPPPPAHHHHHH

Experiments:
[1] = tested on: hHER-2/EL4 (E.HER2) tumor cells; test: Survival after hHER-2/EL4 (E.HER2) tumor challenge of mice pre-immunized with antigen-pulsed dendritic cells; type: in vivo, mouse; conditions: C57BL/6 mice pre-immunized i.p. with antigen-pulsed activated DC, challenged i.p. with hHER-2/EL4 (E.HER2) cells
Experimental: (§1) The hHER-2/E14 tumor cell line was generated by transfecting the mouse EL4 thymoma cell line (ATCC No. TIB-39, Rockville, Md.) with full-length human HER-2 cDNA cloned into the MIRB vector. The hHER-2/B16 tumor cell line was generated by transfecting the mouse B16 melanoma cell line (ATCC No. CRL-6322, Rockville, Md.) with full-length human HER-2 cDNA cloned into the pCR3.1 vector.
(§2) Enriched activated dendritic cells (DCs) were prepared as described (Laus et al., Nature Biotechnology 18:1269-1272 (2000)). Briefly, enriched preparations of activated DC were prepared by incubating female C57BL/6 spleen cells in tissue culture flasks for 2 h at 37° C., removing non-adherent cells, and subsequently culturing the remaining adherent cells for two days in the presence of 1 μM ionomycin (Sigma, St. Louis, Mo.). DC obtained in this manner were pulsed by sixteen hour co-culture with each of the indicated HER-2 ARF polypeptide pools or HER-2 fusion proteins in 1 μM ionomycin, washed two times and injected intraperitoneally (i.p.) into the C57BL/6 mice (2.5×10^5 cells per mouse). Two weeks after the last immunization, mice were challenged with a single i.p. injection of hHER-2/EL4 cells or hHER-2/B 16 cells in 0.1 ml PBS. Mice were monitored daily and their survival recorded.
The effect of pre-immunization with HER-2-ARF polypeptide-pulsed activated DC on suppression of in vivo growth of HER-2-expressing autologous tumors was evaluated in a mouse animal model system. The results of two independent experiments using hHER-2/EL4 cells are shown in FIGS. 1A and 1B, respectively. The results of two independent experiments using hHER-2/B 16 tumor cells are shown in FIGS. 2A and 2B, respectively.

[2] = tested on: CD8 T cell hybridoma B6-H9.B7; test: T cell hybridoma assay (stimulation of CD8 T cell hybridoma B6-H9.B7 by Ag-pulsed cells); type: cell-based, mouse; conditions: untransfected EL-4 tumor cells pre-pulsed with the peptide as stimulators
Experimental: CD8 T cell hybridoma B6-H9.B7, specific for the protective Arf peptide 3h, was isolated from mice immunized with HER-2-derived Arf pool B peptides. FIG. 8D. This hybridoma was stimulated by untransfected EL-4 tumor cells pre-pulsed with the peptide 3h as well as an E.HER2 tumor transfectant in the absence of any externally added Arf peptide.
Arf epitope-specific MHC class I-dependent CD8^+ T cell hybridoma B6.H9-B7 was obtained by fusing thymoma cell line BWZ.36CD8 with splenocytes of mice immunized with HER-2-derived Arf pool B3 peptides. Sanderson et al., Int. Immunol. 6:369-376 (1994). The T cell hybridoma assay was performed as described previously. Karttunen et al., Proc. Natl. Acad. Sci. USA. 88:3972-3976 (1991). Briefly, 10^5 hybridoma cells were incubated in 0.2 ml micro-wells with designated washed Ag-pulsed APC. Stimulation of B6.H9-B7 was visualized after incubation with chlorophenol red B-galactoside (expressed in relative light units). FIG. 8E.

[3] = tested on: hHER-2/B16 (B16.HER2) tumor cells; test: Survival after hHER-2/B16 tumor challenge of mice pre-immunized with antigen-pulsed dendritic cells; type: in vivo, mouse; conditions: C57BL/6 mice pre-immunized with antigen-pulsed DC, challenged with hHER-2/B16 cells
Experimental: as §1
as §2, with “Two weeks after the last immunization, mice were challenged with a single i.p. injection of hHER-2/EL4 cells or hHER-2/B 16 cells in 0.1 ml PBS.” left out
The effect of pre-immunization with HER-2-ARF polypeptide-pulsed activated DC on suppression of in vivo growth of HER-2-expressing autologous tumors was evaluated in a mouse animal model system. […]

[4] = tested on: mPAP/B16 (B16.mPAP) tumor cells; test: Survival after challenge with B16 cells expressing an irrelevant antigen (mouse PAP); type: in vivo; conditions: C57BL/6 mice pre-immunized with antigen-pulsed DC, challenged with B16 cells expressing irrelevant antigen mouse PAP

Row | Molecule | protection against tumor challenge / survival (prevention of in vivo tumor growth) [1] | stimulation of CD8 T cell hybridoma B6-H9.B7 [2] | protection against tumor challenge / survival [3] | protection against tumor challenge / survival [4]
1 | VHRHRHEAAAPCQSR (Made in a lab from synthetic material) [3g] | strong protective capabilities |  |  | 
2 | RHEAAAPCQSRDPPG (Made in a lab from synthetic material) [3h] | strong protective capabilities | stimulated |  | 
3 | B1 | prevented tumor growth |  | protection | no protection
4 | B2 | had little effect |  |  | 
